Experimental data reported in the nanobody polyreactivity screen of Harvey et al. (2022).

test: yeast display, Sf9 membrane polyspecificity reagent, FACS + sequencing; frameworks hold sequencing errors
Summary of the method: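 Galactose induction of a Saccharomyces cerevisiae BJ5465 synthetic nanobody display library ran 36–48 hours. The cells were then stained for 1 hour at 4 °C with 10% biotinylated, detergent-solubilized Sf9 membrane reagent, pulled down on streptavidin microbeads and FACS-sorted into low and high (top ~1%) gates on expression and reagent-binding fluorescence. Labels for polyreactivity follow the gate of origin.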

Sequence	polyreactivity (PSR sort gate)
QVQLVESGGGLVQAGGSLRLSCAASGSTFCFYAMGWYRQSPGKERELVATITIGGRTYADSVKGRFTISRDNAKNTLYLQMNSLKPEDTAVYYCNARNHVQVLFRRDYWVQGTQVTVSS	low polyreactivity
QVQLVESGGGLVQAGGSLRLSCAASGSTFCINAMGWYRQAPGKERDLVAAISSRGGSTYYADSVKGRFTISRDNAKNTVYLQMNSLKPEDTAVYYCAAEFAVSFYWSWLGQDYNYWGQGTQVTVSS	high polyreactivity
QVQLVESGGGLVQAGGSLRLSCAASGSTFDAYAMGWSRQAPGKERELVAAMTNAGSTNYADSVKGRFTISRDNAKNTVYLQMNSLKPEDTAVYYCATDWYHRYLDGRYDYLGQGTQVTVSS	low polyreactivity
QVQLVESGGGLVQAGGSLRLSCAASGSTFDAYAMGWYRQAPGKEWELVAAISTRGGRTDYADSVKGRFTISRDNAKNTVYLQMNSRKPEDTAVYYCTAVGARVNVRGTPAFDSWGQGTQVTVSS	high polyreactivity
QVQLVESGGGLVQAGGSLRLSCAASGSTFDDNAMGWYRQAPGKERELVAAITYRGTRTYYADSVKGRFTISRDNAKNTVYLQMNSLKPEDTAVYYCAADSESVGYEYWGQGTQVTVSS	high polyreactivity
QVQLVESGGGLVQAGGSLRLSCAASGSTFDDYAMGWYRQAPGKEREFVAAITYGGGNTYYADSVKGRFTISRDNAKNTVYLQMNSLKPEDTAVYYCNKLSRGFSPKYGYWGQGTQVTVSS	high polyreactivity
QVQLVESGGGLVQAGGSLRLSCAASGSTFDFYAMGWYRQAPGKERELVARISSGGGRTYYADSVKGRFTISRDNAKNTVYLQMNSLKPEDTAVYYCATDYPWIFGHFLMDYWGQGTQVTVSS	low polyreactivity
QVQLVESGGGLVQAGGSLRLSCAASGSTFDGNAMGWYRQAPGKERELVAAISSSGGSTYYADSVKGRFTISRDNAKNTVYLQMNSLKPEDTAVYYCAAGGWSTLLSWFYRRYDYWGQGTQVTVSS	high polyreactivity
QVQLVESGGGLVQAGGSLRLSCAASGSTFDGNAMGWYRQAPGKERELVAAITSGGSTNYADSVKGRFTISRDNAKNTVYLQMNSLKPEDTAVYYCAADTVSFSILYDYWGQGTQVTVSS	low polyreactivity
QVQLVESGGGLVQAGGSLRLSCAASGSTFDGNAMGWYRQAPGKERELVAGISYRGGSTYYADSVKGRFTISRDNAKNTVYLQMNSLKPEDTAVYYCAADDYGYWLFDYWGQGTQVTVSS	low polyreactivity
QVQLVESGGGLVQAGGSLRLSCAASGSTFDGNAMGWYRQAPGKERELVASITQRASNTYYADSVKGRFTISRDNAKNTVDLQMNSLKPEDTAVYYCARQWYWRPVYYIGQGYEYWGQGTQVTVSS	low polyreactivity
QVQLVESGGGLVQAGGSLRLSCAASGSTFDGNAMGWYRQAPGTERELVAAITSGGSTNYADSVKGRFTISRDNAKNTVYLQMNSLKPEDTAVYYCAADTVSFSILYDYWGQGTQVTVSS	low polyreactivity
QVQLVESGGGLVQAGGSLRLSCAASGSTFDGYAMGWYRQAPGKERELVAAITSSSTSTYYADSVKGRFTISRDNAKNTVYLQMYSLKPEDTAVYYCAAQYFSYISVYSFYTMGYWGQGTQVTVSS	low polyreactivity
QVQLVESGGGLVQAGGSLRLSCAASGSTFDHYAMGWYRPAPGKERELVAAISYSGSTTDYADSVKGRFTISRDNAKNTVYLQMNSLKPVDTAVYYFAASGDVIQSPMDYWGQGTQVTVSS	low polyreactivity
QVQLVESGGGLVQAGGSLRLSCAASGSTFDINAMGWYRQAPGKERELVAAITDSGGSTHYADSVKGRFTISRDNAKNTVSLQMNSLKPEDTAVYYCNADDYLVYAGSHYGYWGQGTQVTVSS	low polyreactivity
QVQLVESGGGLVQAGGSLRLSCAASGSTFDIYAMGCYRQAPGKERELVAAITFSGGSTYADSVKGRFTISRDNAKNTVYFQMNSLKPEDTAVYYCAVDGGEFSSYGYWGQGTQVTVSS	low polyreactivity
QVQLVESGGGLVQAGGSLRLSCAASGSTFDIYAMGWYRPAPGKERELVAVISGGDGSTYYADSVKGRFTISRDNAKNTVYLQMNSLKPEDTAVYYCAADYISPGYWDGEYDCWGQGTQVTVSS	low polyreactivity
QVQLVESGGGLVQAGGSLRLSCAASGSTFDIYAMGWYRQAPGKERELVAAISVSDVDTYYADSVKGRFTISRDNAKNTVYLQMNSLKPEDTAVYYCAAETPTHDEWGQGTQVTVSS	high polyreactivity
QVQLVESGGGLVQAGGSLRLSCAASGSTFDIYVMGWYRQAPGKEREFVAAITTTTGRTNYADSVKGRFTISRDYAKNTVYLQMNSLKPEDTAVYYCAAYVTWGKLWYGYWGQGTQVTVSS	high polyreactivity
QVQLVESGGGLVQAGGSLRLSCAASGSTFDKNTMGWYRQAPGKERELVAAISRSGGSTYYADSVKGRYTISRDNAKNTVYLQMNSLKPEDTAVYYCAAQSRYWTYDYWGQGTQVTVSS	high polyreactivity
QVQLVESGGGLVQAGGSLRLSCAASGSTFDKYAMGWYRQAPGKERELVAAISSGSSTSYADSVKGRFTISRDNAKNTVYLQMNSLKPEDTAVYYCAAEVAESIEDDYWGQGTQVTVSS	low polyreactivity
QVQLVESGGGLVQAGGSLRLSCAASGSTFDLYAMGWCRQAPGKEREWVAAITWSGDDTYYADSVKGRFTISRDNATNTVYLQMNSLKPEDTAVYYCAAAYAYWGQGTQVTVSS	low polyreactivity

Sequence	polyreactivity (PSR sort gate)
QVQLVESGGGLVQAGGSLRLSCAASGSTFDLYAMGWYRQAPGKEREFVASISWRGTNTYYADSVKGRFTISRDNAKNTVYLQMISLKPEDTAVYYCYAVRGWTTRYDYWGQGTQVTVSS	high polyreactivity
QVQLVESGGGLVQAGGSLRLSCAASGSTFDNNGMGWYRQAPGKERELVASITFNVGSTYYADSVKGRFTISRDNAKNTVYLQMNSLKPEDTAVYYCAADDLNLSQALGYDYWGQGTQVTVSS	low polyreactivity
QVQLVESGGGLVQAGGSLRLSCAASGSTFDQNAMGWYRPAPGKERELVAAISGSGTRTYYADSVKGLFTISRDNAKKTVYLQMNSLKPEDTAVYYCRTGSGEYDYWGQGTQVTVSS	high polyreactivity
QVQLVESGGGLVQAGGSLRLSCAASGSTFDRYAMGWYRQAPGKERELVAAITRGGSTYYADSVKGRFTISRDNAKNTVYLQMNSLKPEDTAVYYCAARYRAYVKLTSYDWGQGTQVTVSS	high polyreactivity
QVQLVESGGGLVQAGGSLRLSCAASGSTFDSNVMGWYRQAPGKERELVAVINGSGSNTYYADSVKGRFTISRDNAKNTVYLQMNSLKPEDTAVYYCAVERSVYSYYYWGQGTQVTVSS	high polyreactivity
QVQLVESGGGLVQAGGSLRLSCAASGSTFDSYAMGWYRPAPGKERELVAAITDSGSSTYYADSVKGRFTISRDNAKNTVYLQMNSLKPEDTAVYYCATYDYHGWSYYRYDYWGQGTQVTVSS	low polyreactivity
QVQLVESGGGLVQAGGSLRLSCAASGSTFDSYAMGWYRQAPGKEREFVAAITWSGGRTYYADCVKGRFTISRDNAKNTVYLQMNSLKPEDTAVYDCSATDPWGWDYYYWGQGSQVTVSS	low polyreactivity
QVQLVESGGGLVQAGGSLRLSCAASGSTFDTNAMGWYRQAPGKERELVASISSAGSTNYADSVKGRFTISRDNAKNTVYLQMNSLKPEDTAVYYCAKYYGQFYPPTLGYWGQGTQVTVSS	low polyreactivity
QVQLVESGGGLVQAGGSLRLSCAASGSTFDTYAMGWSRPAPGKERELVAAITSGSSTNYADSVKGRFTISRDNAKNTVYLQMNSLKPEDTAVYYCAALGYNVSSRGYYYWGQGTQVTVSS	low polyreactivity
QVQLVESGGGLVQAGGSLRLSCAASGSTFDTYAMGWYRQAPGKERELVAAISVSGTSTSYADSVKGRFTISRDNAKNTVYLQMNSLKPEDTAVYYCNATDFSRNPGYARPEYDYWGQGTQVTVSS	low polyreactivity
QVQLVESGGGLVQAGGSLRLSCAASGSTFDTYAMGWYRQAPGKERELVATITNSVGNTYYADSVKGRFTISRDNAKNTVYLQMNSLKPEDTAVYYCAAETVYILAPGYYDYDYWGQGTQVTVSS	low polyreactivity
QVQLVESGGGLVQAGGSLRLSCAASGSTFDTYAMGWYRQAPGKERELVAVITTGGSTYYADSVKGRFTISRDNAKNTVNLQMNSLKPEDTAVYYCNAGYSVSRRRKYGYWGQGTQVTVSS	high polyreactivity
QVQLVESGGGLVQAGGSLRLSCAASGSTFDVNAMGWYRPAPGKERELVAAISFSGGSTYYADSVKGRFTISRDNAKNTVYLQMNSLKPEDTAVYYCAAEEWRSYYEEYDYWGQGTQVTVSS	low polyreactivity
QVQLVESGGGLVQAGGSLRLSCAASGSTFDVNTMGWYRQAPGKERELVAAISSSGGDTYYADSVKGRFTISRDNAKNTVYLQMNSLKPDDTAVYYCAARLGFYTYGYTSWYTVYYWGQGTQVTVSS	low polyreactivity
QVQLVESGGGLVQAGGSLRLSCAASGSTFDVYAMGWYRQAPGKERELVAAIRSSGGSTFYADSVKGRFTISRDNAKNIVYLQMISLNPEDTAVYYCAARSFVVSGYNKYYEYGYWGQGTHVTVSS	low polyreactivity
QVQLVESGGGLVQAGGSLRLSCAASGSTFDVYAMGWYRQAPGKERELVAAISRSGGSTYYADSVKGRFTISRDNAKNTVYLQMNSLKPEDTAVYYCNARLARWGSYEYNYWGQGTQVTVSS	low polyreactivity
QVQLVESGGGLVQAGGSLRLSCAASGSTFDVYAMGWYRQAPGKERELVAGISSRGGRTYYADSVKGRFTISRDNAKNTVYLQMNSLKPEDTAVYYCAARYKGNPDRYGYWGQGTQVTVSS	high polyreactivity
QVQLVESGGGLVQAGGSLRLSCAASGSTFDVYAMGWYRQAPGKERELVASISITDGSTYYADSVKGRFTISRDNAKNTVYLPMNSLKPEDTAVYYCNAQYGGSYVEYDYWGQGTQVTVSA	low polyreactivity
QVQLVESGGGLVQAGGSLRLSCAASGSTFDVYTMGWYRQAPGKERELVATISGDDGSTYYADSEKGRFTISRDNAKNTVSLQMNSLKPEDTAVYYCAADYGGFPNYYSTGDYWGQGTQVTVSS	low polyreactivity
QVQLVESGGGLVQAGGSLRLSCAASGSTFDYNAMGWYRQAPGKERELVAAITTVGITYYADSVKGRFTISRDNAKNTVYLQMNSLKPEDTAVYYCAARCVRYGGRYDYWGQGTQVTVSS	high polyreactivity
QVQLVESGGGLVQAGGSLRLSCAASGSTFDYYAMGWYRQAPGKERELVATISWSGTDTYYADSVKGRFTISRDNAKNTVYLQMNSLKPEDTAVYYCAADTVYWRGWSGYYYWGQGTQVTVSS	low polyreactivity
